These results are taken from publication PMC10681719, “An archaeal virus-encoded anti-CRISPR protein inhibits type III-B immunity by inhibiting Cas RNP complex turnover”.

Series [1] has as its target Cmr-α ribonucleoprotein complex (RNP) (S. islandicus | S. islandicus (endogenous in the expression strain)).
In series [2] the target is T1, AcrIIIB2 (Sulfolobus islandicus rod-shaped virus …, UniProt A0A1B3SN31 1-149).
T1 sequence: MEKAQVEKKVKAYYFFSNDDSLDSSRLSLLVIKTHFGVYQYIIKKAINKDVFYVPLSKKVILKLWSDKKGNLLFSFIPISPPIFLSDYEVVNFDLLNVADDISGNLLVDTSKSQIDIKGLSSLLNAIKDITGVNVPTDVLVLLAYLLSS
The series is described as follows: EMSA; 10 mM EDTA; no difference in affinity among RNAs; EMSA: 20 mM MES pH 6.0, 10 mM EDTA, 250 nM FAM substrate, 70 C for 5 min (10 min stated for RNP in Methods); 12% native PAGE in 0.5x TB. As to conditions: protein: recombinant, tags: C-terminal 6xHis (pET30a). In general terms: In EMSA bound probe runs differently from free probe, usually more slowly.

In series [3] the target is T1, AcrIIIB2. Kind of series: EMSA; 250 nM RNA, 0-15 uM protein, 10 mM EDTA, 70 C; also binds at lower temperature; EMSA: 20 mM MES pH 6.0, 10 mM EDTA, 250 nM FAM substrate, 70 C for 5 min (10 min stated for RNP in Methods); 12% native PAGE in 0.5x TB. As to conditions: protein: recombinant; tags: C-terminal 6xHis (pET30a); label: 5'-FAM.

For His-tagged AcrIIIB2 (natural protein), in series [1], the cis RNase activity of Cmr-α RNP (100 nM) on 250 nM labeled target RNA: uncleaved target RNA, AcrIIIB2 to Cmr-α RNP molar ratios 0 to 30 is 80%; the trans ssDNase activity of Cmr-α RNP (100 nM) with 300 nM target RNA and 300 nM labeled ssDNA: uncleaved ssDNA, AcrIIIB2 to Cmr-α RNP molar ratios 0 to 30 is 15%. With UCAAAGCUUAGAUACCCUGGA (ssRNA) [RNA3], the binding result with AcrIIIB2 [2] (label: 5'-FAM) is “binds”. Consider GUGACAGCAUCUCAUACUAGACAG (ssRNA) [RNA4], for which the binding result with AcrIIIB2 [2] (label: 3'-FAM) is “binds”. Regarding AGUCUCGUAACCAGUCCAAGAACAGAAACCAGUCAAAUGACCG (ssRNA) [RNA1 (target RNA, 43 nt)], the binding result with AcrIIIB2 [3] is on record as “binds”. Regarding CCAAGCUAAUCUACUAUAGAAUUGAAAGCU (ssRNA) [RNA2], in the series with AcrIIIB2 [2] (label: 5'-FAM), the binding result is reported as “binds”.
